# In patent publication US20230071609A1 (Genentech, published 2023):
# T1: APOL1 very C-terminal peptide aa 376-398 (human)
# T1 peptide: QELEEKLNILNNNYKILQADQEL
# T2: iAPOL1-G0 in podocytes (EIK variant, doxycycline-inducible, in APOL1 KO podocytes) (human, UniProt O14791 29-398)
# T2 construct: Stably re-expressed untagged APOL1 isoform A in APOL1 KO clone 89401-3; also called iAPOL1-G0 podocytes; iAPOL1 podocytes
# T2 chain: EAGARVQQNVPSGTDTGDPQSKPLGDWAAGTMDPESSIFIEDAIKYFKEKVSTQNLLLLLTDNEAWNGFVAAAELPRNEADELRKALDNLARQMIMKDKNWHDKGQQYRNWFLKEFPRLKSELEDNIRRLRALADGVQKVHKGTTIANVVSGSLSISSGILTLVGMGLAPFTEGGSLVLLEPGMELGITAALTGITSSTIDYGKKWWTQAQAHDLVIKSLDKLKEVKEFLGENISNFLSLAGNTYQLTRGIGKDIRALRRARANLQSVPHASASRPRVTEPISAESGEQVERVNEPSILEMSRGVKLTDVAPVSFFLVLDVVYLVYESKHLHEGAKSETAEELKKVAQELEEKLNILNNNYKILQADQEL
# B1: antibody 4.12E5 (antibody, V domains shown)
# VH: EVQLQQSGPELVKTGASVKISCKASGYSFTGYFMHWVKQSHGKSLEWIGYISCYNGASVYNQRFKGKATFTIDTSSSTAYMQFNSLTSEDSAVYYCARDVLRYPRYAVDYWGQGTSVTVSS
# VL: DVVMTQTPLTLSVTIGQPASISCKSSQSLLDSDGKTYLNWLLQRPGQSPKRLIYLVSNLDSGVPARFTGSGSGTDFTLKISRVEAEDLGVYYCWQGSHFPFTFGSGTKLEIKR
# notes: Mouse mAb, cloned as murine IgG2a LALAPG
# B2: antibody 3.6E10 (antibody, V domains shown)
# VH: QVQLQQSGAELAKPGASVKMSCKASGYIFTSYYLHWVKQRPGQGLEWIGYINPNTGYTEYTQNFKDRATLTADKSSSTAYMQLTSLTSEDSAVYFCVNGNPFVYWGQGTLVTVSA
# VL: DIVMTQSPSSLTVTTGEKVTMTCRSSQSLLNSGNQKNYLTWFQQKPGQPPKLLIYWTSTRYSGVPDRFTGSGSGTDFTLTISSVQAEDLAVYYCQNDYSYPLTFGAGTKLEIKR
# notes: as for B1
# Assays:
# [1] = biological target: T1, APOL1 very C-terminal peptide aa 376-398; experiment: overlapping ~20-mer peptides (SPR, western blot); antibody named in paragraph 192
# Method: Following three TBST washes, anti-mouse (GE Healthcare NA931V, 1:3000) or anti-rabbit HRP (Jackson 711-036-152, 1:8000) was added as secondary antibody. After 1 h, membranes were washed and protein detected using ECL prime (Amersham RPN2232) exposed to MR film (Kodak). Anti-actin HRP-conjugated antibody (clone 13E5, Cell Signaling Technologies 5125S at 1:5000) or calnexin (Abcam Ab22595 at 1:1000) was used as a loading control. For peptide mapping, 2 μl of 1 mM peptides in DMSO were boiled in 5× sample buffer and loaded on 10% Tris-Glycine gel and run using MES buffer. Cell pellets of Sf9 lysates were lysed in native RIPA (NP-40) lysis buffer and run on 10% Tris-Glycine gels.
# A 96×96 array-based SPR imaging system (Carterra USA) was used for epitope mapping of anti-ApoL1 monoclonal antibodies. Briefly, purified monoclonal hybridoma antibodies were diluted at 10 μg/ml in 10 mM sodium acetate buffer pH 4.5. Using amine coupling, antibodies were directly immobilized onto a SPR sensorprism CMD 200M chip (XanTec Bioanalytics, Germany) using a Continuous Flow Microspotter (Carterra, USA) to create an array of antibodies. After coupling, the antibodies were blocked with ethanolamine, and primed with running buffer (10 mM HEPES, pH 7.4, 150 mM NaCl, 3 mM EDTA, and 0.005% Tween 20). Epitope mapping was performed by flowing 100 nM of different peptides of APOL1 across the immobilized anti-APOL1 antibodies on the biosensor chip at 25° C. in a running buffer of 10 mM HEPES, pH 7.4, 150 mM NaCl, 3 mM EDTA, and 0.005% Tween 20. After each flow through of the APOL1 peptide, the chip surface was regenerated using 10 mM glycine, pH 2.0.
# [2] = biological target: T2, iAPOL1-G0 in podocytes (EIK variant, …); experiment: immunoelectron microscopy, APOL1-G0 podocytes
# Method: Scale bars are 200 nm. APOL1 appears more closely associated with the inner ER membrane face than does the luminal KDEL.
# For iEM, 1.4×10⁶ HEK-293 cells in T25 flasks were reverse transfected with 5.4 μg APOL1 or APOL2 cDNA with 12 μl Fugene 6 (Roche 11814443001) for 50 h or 65 h, respectively. Podocytes and transiently transfected HEK-293 cells were fixed with 4% paraformaldehyde in 0.1M phosphate buffer (PB), pH 7.4, for 2 h at room temperature, then overnight at 4° C., and with 2% paraformaldehyde, 0.2% glutaraldehyde in 0.1 M phosphate buffer (PB), pH 7.4, for 2 h at room temperature, respectively. Fixations were continued in 1% PFA in 0.1 M PB at 4° C. for several days. […] For quantitation, random images of APOL1/2 expressing HEK-293 cells and podocytes were made. The positions of at least 50 gold particles per antibody were scored as either (i) OMF: overlapping on outer ER membrane surface and cytosol, or located in the cytosol at a distance ≤15 nm between outer ER membrane surface and the 10 nm gold particle surface; (ii) IMF: overlapping on inner ER membrane surface and ER lumen, or located in the lumen at a distance ≤15 nm between inner ER membrane surface and gold particle surface; or (iii) Lumen: within the ER lumen, with a distance >15 nm between the 10 nm gold particle surface and the nearest inner ER membrane surface. […]
Binder,binding result [1],binding result [2]
B1,binds,–
B2,–,binds
